Here are results for 1 substance from patent publication US11578136B2, “Compositions and methods for treating cancer” (INNATE PHARMA, priority 2017, dated 2023).

The subject of data set [1] is monocyte-derived DC (moDC). The experiment in a line: Activation of dendritic cells in presence of ATP (flow cytometry). The class given is cell-based, human. Conditions: ATP at 0.125 mM, 0.25 mM or 0.5 mM; I-394 at 10 μg/ml. The protocol: While ATP has pro-inflammatory, CD39-mediated catabolism of ATP is believed to be able to impair dendritic cell (DC) activation, in turn altering a broader adaptive immune response against tumor antigen. In order to evaluate whether CD39 blockade using anti-CD39 antibodies could overcome CD39-mediated alteration of dendritic cell (DC) activation in the presence of ATP, we incubated monocyte-derived DC (moDC) with anti-CD39 antibodies in the presence of ATP.
Briefly, human monocytes were purified from human healthy blood and differentiated into MoDC in presence of GM-CSF and IL-4 during 6 days. […] In some cases, MoDC were preincubated during 1 hours in presence of CD39 inhibitor: […] (Tocris, 250 μM), CD73 inhibitor: APCP (Tocris 50 μM), anti-CD39 blocking antibody I-394 or BY40 (for BY40 see WO2009/095478), or anti-CD73 blocking antibodies. LPS (Invivogen, 10 ng/ml) was used as positive control. To assess resulting effect of ATP-mediated DC activation on CD4 T cells activation, ATP-activated DC were washed and then incubated with allogenic CD4 T cells (ratio 1 MoDC/4 T cells) for a mixed lymphocytes reaction (MLR) during 5 days. T cells activation and proliferation were analyzed through CD25 expression and Cell Trace Violet dilution by flow cytometry (FIG. 8).

In the next data set the target is T1, cell-membrane bound CD39 (Homo sapiens, UniProt P49961).
T1 sequence (P49961 1-510): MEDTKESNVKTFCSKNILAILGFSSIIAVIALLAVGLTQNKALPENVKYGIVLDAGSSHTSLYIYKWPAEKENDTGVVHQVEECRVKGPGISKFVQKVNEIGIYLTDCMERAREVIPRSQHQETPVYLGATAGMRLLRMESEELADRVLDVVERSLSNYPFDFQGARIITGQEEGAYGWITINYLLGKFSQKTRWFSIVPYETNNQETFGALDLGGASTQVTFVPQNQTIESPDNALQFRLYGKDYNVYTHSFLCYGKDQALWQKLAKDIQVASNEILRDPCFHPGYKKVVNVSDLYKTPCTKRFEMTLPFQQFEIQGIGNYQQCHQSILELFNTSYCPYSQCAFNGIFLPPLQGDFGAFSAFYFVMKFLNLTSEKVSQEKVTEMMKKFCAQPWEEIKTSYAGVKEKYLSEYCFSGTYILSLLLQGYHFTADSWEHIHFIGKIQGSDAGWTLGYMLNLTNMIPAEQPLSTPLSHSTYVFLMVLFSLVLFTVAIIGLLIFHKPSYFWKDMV
The experiment in a line: Inhibition of the enzymatic activity of cellular CD39 (cells not specified). It counts as cell-based. Here is the method:
(§1) The inhibition of the CD39 enzymatic activity in CD39-expressing cells by antibodies was evaluated using Cell Titer Glo™ (Promega, reference G7571) that allows assessment of ATP hydrolysis through use of a reagent that generates a luminescent signal proportional to the amount of ATP present. The assay was thus designed to permit assessment of the inhibition of ATP hydrolyzed by CD39 in the cell culture supernatant. Briefly, 5×10^4 Ramos human lymphoma cells, 5×10^3 human CD39-, cynomolgus CD39- and mouse CD39-expressing CHO cells, were incubated 1 hour at 37° C. with anti-CD39 antibodies from 30 μg/ml to […]. Cells were then incubated with 20 μM ATP for 1 additional hour at 37° C. Plates were centrifuged for 2 min at 400 g and 50 μl cell supernatant are transferred in a luminescence microplate (white wells). 50 μl CellTiter-Glo® Reagent (CTG) was added to the supernatant and emitted light was quantified after a 5 min incubation in the dark using a Enspire™ luminometer. Anti-CD39 antibody efficacy was determined by comparing emitted light in presence of antibody with ATP alone (maximal light emission) and ATP together with cells (minimal light emission).
The two antibodies that have been reported to inhibit the ATPase activity of CD39 in cellular assays (BY40 and BY12) were assessed to determine whether are able to inhibit the ATPase activity of recombinant soluble CD39 protein. […]

Data set [2] deals with T2, human CD39-expressing CHO cells (CHO-huCD39) (Homo sapiens, UniProt P49961).
T2 construct: expressed in transfected cells; host or cells: CHO cells
T2 sequence (P49961 1-510): T1 sequence (P49961 1-510)
The experiment in a line: Inhibition of the enzymatic activity of cellular CD39 in CHO-huCD39. The class given is cell-based. Conditions: result in words. The protocol:
as §1
The inhibition by antibody I-394 of the ATPase activity of CD39 in CD39-expressing cells was evaluated using the assay used for inhibition of the enzymatic activity of cellular CD39 as described above (Methods).

Regarding “I-394: anti-CD39 antibody, VH SEQ ID NO: 6, VL SEQ ID NO: 7; human IgG1 Fc with L234A/L235E/G237A/A330S/P331S”, the “ATP-induced moDC activation as assessed by HLA-DR or CD83 expression” value in data set [1] is “permitted moDC activation”. Besides, the “potency and maximal inhibition of cellular CD39 compared to BY40 (FIG. 2A)” value with cell-membrane bound CD39 (compared to BY40) is “greater potency and maximal inhibition”. For the same substance, the “inhibition of ATPase activity of CD39 protein in cells / cell-membrane bound CD39” value with cell-membrane bound CD39 (result in words) is “inhibit”. Moreover, the “blocking CD39 enzymatic activity in CHO-huCD39” value in data set [2] is listed as “blocks”.
